In publication PMC6510727 (2019):
Read-outs that look alike come from different tables or passages of the source. One block for each binder: values may come before it.

Key:
transducin α (Tα*) = transducin α (Tα*) (Bos taurus, UniProt P04695); experiment: PDE activation assay fit (membranes)
[1] = biological target: T1, PDE catalytic subunit (PDEcat) (Bos taurus, UniProt P11541)
T1 chain 1: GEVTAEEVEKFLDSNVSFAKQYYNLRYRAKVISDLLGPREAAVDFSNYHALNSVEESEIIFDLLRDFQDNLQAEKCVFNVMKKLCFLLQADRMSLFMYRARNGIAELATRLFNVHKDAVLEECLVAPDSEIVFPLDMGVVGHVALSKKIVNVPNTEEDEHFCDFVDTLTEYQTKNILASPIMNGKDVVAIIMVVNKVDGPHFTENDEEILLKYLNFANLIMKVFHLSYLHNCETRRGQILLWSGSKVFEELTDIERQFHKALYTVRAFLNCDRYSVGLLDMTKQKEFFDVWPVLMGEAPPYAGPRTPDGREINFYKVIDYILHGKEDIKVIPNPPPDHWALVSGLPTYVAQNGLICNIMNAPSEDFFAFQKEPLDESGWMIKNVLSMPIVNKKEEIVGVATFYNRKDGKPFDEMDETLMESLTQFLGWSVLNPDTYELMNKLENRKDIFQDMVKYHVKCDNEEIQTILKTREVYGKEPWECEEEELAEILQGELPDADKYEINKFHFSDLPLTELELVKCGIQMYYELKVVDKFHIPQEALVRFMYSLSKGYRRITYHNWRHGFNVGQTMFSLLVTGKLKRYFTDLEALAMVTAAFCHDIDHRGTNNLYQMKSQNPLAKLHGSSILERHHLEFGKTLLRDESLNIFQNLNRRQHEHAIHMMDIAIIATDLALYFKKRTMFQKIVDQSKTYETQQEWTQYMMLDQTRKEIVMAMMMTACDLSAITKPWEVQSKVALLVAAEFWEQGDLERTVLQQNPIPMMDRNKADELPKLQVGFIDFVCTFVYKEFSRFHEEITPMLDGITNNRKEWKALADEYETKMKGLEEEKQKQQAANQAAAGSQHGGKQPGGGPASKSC
T1 chain 2: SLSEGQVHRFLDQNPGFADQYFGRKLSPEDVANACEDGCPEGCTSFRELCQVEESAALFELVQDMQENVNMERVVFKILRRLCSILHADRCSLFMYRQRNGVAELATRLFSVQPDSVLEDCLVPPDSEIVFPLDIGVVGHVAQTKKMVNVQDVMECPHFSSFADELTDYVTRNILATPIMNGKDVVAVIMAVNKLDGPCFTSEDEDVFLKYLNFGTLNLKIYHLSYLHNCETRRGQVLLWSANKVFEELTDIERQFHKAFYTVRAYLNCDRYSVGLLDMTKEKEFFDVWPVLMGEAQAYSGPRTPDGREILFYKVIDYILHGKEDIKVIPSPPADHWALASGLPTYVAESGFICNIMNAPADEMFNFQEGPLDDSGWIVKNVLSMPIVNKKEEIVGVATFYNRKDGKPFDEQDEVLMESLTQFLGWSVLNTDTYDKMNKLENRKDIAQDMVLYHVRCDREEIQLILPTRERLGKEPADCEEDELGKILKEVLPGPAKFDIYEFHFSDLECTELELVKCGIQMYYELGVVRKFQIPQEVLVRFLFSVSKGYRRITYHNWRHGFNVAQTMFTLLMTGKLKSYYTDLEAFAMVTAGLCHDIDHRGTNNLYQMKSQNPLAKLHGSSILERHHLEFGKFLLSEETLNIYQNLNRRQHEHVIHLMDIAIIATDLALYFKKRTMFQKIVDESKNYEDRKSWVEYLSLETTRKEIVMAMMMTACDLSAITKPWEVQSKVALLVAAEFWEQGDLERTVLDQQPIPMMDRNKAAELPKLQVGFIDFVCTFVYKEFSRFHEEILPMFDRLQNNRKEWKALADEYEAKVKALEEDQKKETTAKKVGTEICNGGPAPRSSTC

transducin α (Tα-S*) = transducin α (Tα-S*) (Bos taurus, UniProt P04695); experiment: PDE activation assay fit (solution)
Sequence of transducin α (Tα-S*) (P04695 2-350): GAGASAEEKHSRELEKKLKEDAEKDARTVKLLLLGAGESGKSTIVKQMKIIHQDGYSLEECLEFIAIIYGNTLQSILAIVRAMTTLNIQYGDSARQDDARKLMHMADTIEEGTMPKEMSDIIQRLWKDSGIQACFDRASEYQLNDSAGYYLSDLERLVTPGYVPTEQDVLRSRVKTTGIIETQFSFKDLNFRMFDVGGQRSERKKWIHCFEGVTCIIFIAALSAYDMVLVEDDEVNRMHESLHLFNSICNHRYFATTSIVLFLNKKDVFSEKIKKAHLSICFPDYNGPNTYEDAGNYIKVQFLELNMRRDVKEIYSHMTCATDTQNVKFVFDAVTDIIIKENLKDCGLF

[2] = biological target: T1, PDE catalytic subunit (PDEcat); experiment: PDE activity assay (membranes)

Sequence of transducin α (Tα*) (P04695 2-350): as above

Kd (transducin α (Tα*)): 56.5 pM
B1: PDEγ (protein)
chain: MNLEPPKAEIRSATRVMGGPVTPRKGPPKFKQRQTRQFKSKPPKKGVQGFGDDIPGMEGLGTDITVICPWEAFNHLELHELAQYGII
modifications: activated Tα, membranes

Kd [1]: 5 pM
B2: PDEγ (protein)
chain: MNLEPPKAEIRSATRVMGGPVTPRKGPPKFKQRQTRQFKSKPPKKGVQGFGDDIPGMEGLGTDITVICPWEAFNHLELHELAQYGII

Kd (transducin α (Tα-S*)): 4500 pM
B3: PDEγ (protein)
chain: MNLEPPKAEIRSATRVMGGPVTPRKGPPKFKQRQTRQFKSKPPKKGVQGFGDDIPGMEGLGTDITVICPWEAFNHLELHELAQYGII
modifications: GTPγS-bound Tα

Kd [2]: 55 pM
B4: PDEγ (protein)
chain: MNLEPPKAEIRSATRVMGGPVTPRKGPPKFKQRQTRQFKSKPPKKGVQGFGDDIPGMEGLGTDITVICPWEAFNHLELHELAQYGII
modifications: membranes
